According to PMC7027807:

Biological target: CP-His-CP MS2 dimer (bacteriophage MS2)
Assay: cryo-EM structure; large particles (~330 Å) of the same CP-His-CP sample; icosahedral T = 4 reconstruction at 6 Å, x100k and x150k datasets together; coat protein dimers of PDB 5TC1 fitted as rigid bodies

Substance: CP-His-CP MS2 dimer
- stoichiometry N (coat proteins): 240
